According to patent US7230094B2, “Neutral sphingomyelinase antisense ribozyme and uses thereof” (priority 2001, dated 2007):

How the values were obtained:
Assay type in all cases: cell-based, human
[1] = tested on: caspase-3 and cytochrome-C release; assay: Caspase-3 and cytochrome-C release by western analysis and densitometry; settings: N-SMase-deficient cells compared to control (sham-transfected) cells
Method: In order to determine a dose-response relationship between the concentration of TNF-α or FasL and apoptosis, western analysis was used to quantitate release of both caspase-3 (FIG. 9) and cytochrome-C (FIG. 10).
Immunoblots for the measurement of cytochrome-C and caspase-3 were carried out after incubation of cells with TNF-α (10 ng/ml) or FasL (1 ng/ml) for 48 hours. Cells were extracted with a buffer (20 mM Hepes pH 7.5, 10 mM KCl, 1.5 mM MgCl2, 5 mM EDTA, 5 mM DTT, 2 mM phenylmethylsulfonylfluoride, 1% NonidetP40, 0.5% sodium deoxycholate, 0.1% SDS, 2 μg/ml leupeptin, 2 μg/ml aprotinin, 0.5 μg/ml benzamindine, and 250 mM sucrose) on ice for 30 minutes. After centrifugation for 10 minutes at 10,000×g, the supernatant was used for western analysis with an antibody for cytochrome-C (Pharmingen, San Diego, Calif.). For assessment of caspase-3, samples were similarly processed in addition to passage through a 21-g needle prior to centrifugation. The western analysis was performed with a rabbit polyclonal IgG antibody to caspase-3 (Santa Cruz, Calif.) raises against an epitope corresponding to amino acids 1–277, representing the full-length precursor form of CPP-32 (caspase-3). For both caspase-3 and cytochrome-C, bands were quantified with densitometric analysis.

MG-63 cells = assay: Apoptosis by DAPI staining and counting of apoptotic cells; settings: for Apoptosis in response to TNF-α and Fas-L: cells with ribozyme-induced deficiency of N-SMase, TNF-α 20 ng/ml, Fas-L 1 ng/ml, 24 hr
Method: FIG. 6 depicts a quantitative analysis of the effects of TNF-α, C2-Ceramide and Fas-ligand on apoptosis in mutant (CC) and WT (MG-63) cells, as well as wild type/mock transfected cells. Cells were grown on glass cover slips and incubated for 24 hours with TNF-α (20 ng/ml), cell-permeable ceramide (C2-Ceramide) (10 ng/ml) or Fas-L (1 ng/ml). Cells were fixed and stained with DAPI and photographed at 50× magnification. Apoptotic cells were counted using a hemocytometer. The basal levels of apoptotic cells were: MG-63 (3%); L-3 (3%); and CC (2.8%). Errors bars indicate ±S.D. (N=2).
WT (MG-63), LacZ (L-3) and mutant (CC) cells were grown on glass cover slips and incubated for 24 hr with TNF-α (20 ng/ml), cell-permeable ceramide (C2-ceramide) (10 ng/ml) or Fas-L (1 ng/ml). Cells were fixed and stained with DAPI stain and photographed (50×). Apoptotic cells were counted using a hemocytometer and compared to total cell counts per field. Basal levels of apoptosis were 3% untransfected, 3% control transfection, and 2.8% ribozyme transfection.

A-SMase = assay: Acid sphingomyelinase activity in cell extracts, [14C]sphingomyelin substrate; settings: for Acid SMase activity: MG-63 WT 2.7, L-3 LacZ/sham 2.3, average of two batches; for Reduction in A-SMase activity: ribozyme-transfected cells compared to sham-transfected and untransfected controls
Method: (§1) Confluent culture of cells were harvested, washed, and pellets lysed in buffer containing 0.1% Triton™ X-100, 25 mM Tris (pH 7.4) buffer, 5 mM EDTA, 1 mM phenylmethylsulfonylfluoride and 2 μg each of chymostatin, leupeptin, antipain, and pepstatin A. The activity levels of acid and neutral sphingomyelinase were measured in cell extracts (100 μg protein) in duplicate as described previously employing […] as the substrate.
(§2) Activities of A-SMase and N-SMase were also measured according to methods described in Chatterjee, S. and Ghosh, N. (1996) Glycobiology 6:303–311, incorporated herein by reference, with minor modifications. In brief, 5×10^6 MG63 cells were scraped from the culture plates, washed with PBS, and disrupted by repeated passage through a 25-gauge needle. Nuclei and cell debris were pelleted at 800×g for 5 min. Supernatant fluid was collected, and the protein concentration was measured using the Bio-Rad (Hercules, Calif.) protein detection kit. To measure SMase activity, 50 μg of protein was incubated for 90 min (the reaction was linear for up to 120 min) at 37° C. in buffer (200 μl final volume) containing 250 mM sodium acetate and 1 mM EDTA, pH 5.0, for A-SMase or 250 mM Tris-Cl, pH 7.4, with or without 6 mM MgCl2 for N-SMase, and 0.75 μl of [methyl-^14C]sphingomyelin (SM) (0.2 mCi/ml; 56.6 mCi/mmol). Radioactive phosphocholine produced from [^14C]SM was extracted with 800 μl of chloroform-methanol (2:1, vol/vol) and 100 μl of H2O. [^14C]phosphocholine in the aqueous phase was measured by scintillation counting.

N-SMase [2] = assay: Western immunoblot and densitometric analysis of N-SMase; settings: mutant CC cells vs WT, FIG. 3
Method: (§3) FIG. 3 depicts a western immunoblot assay and densitometric analysis of N-SMase. About 10 μg of partially purified N-SMase preparations from WT (MG-63) and mutant (CC) cells were solubilized and subjected to 7.5% polyacrylamide SDS gel electrophoresis. The proteins were then transferred to PVDF membranes and subjected to a western immunoblot assay employing an N-SMase antibody or β-actin antibody (control). The immunoreactive protein bands were then subjected to densitometric scanning.
as §3, with “Western” for “FIG. 3 depicts a western”, “analysis was used to quantify the level” for “analysis”, “N-SMase in WT and CC cells.” for “N-SMase.”, “antibody.” for “antibody or β-actin antibody (control).”

N-SMase mRNA = N-SMase mRNA by Northern analysis and RT-PCR in transfected MG63 clones
Method: RNA was originally extracted from a single confluent (90%) T-75 flask using Trizol. […] Next, poly-A^+ RNA was extracted from 3 confluent T-75 flasks, loading 3.5 μg/lane. Northern gels were standard, using 1.2% agarose, 1×MOPS, and 6.5% formaldehyde. RNA was transferred to nylon membranes with a standard wick system. The cDNA probe was derived from the cDNA construct, pHH11. An EcoR-1/SpeI fragment, containing a three hundred base pair probe was prepared. This was radiolabeled with [^32P]-dCTP and the random primer labeling system.
Clone CC had no detectable N-SMase mRNA by Northern analysis, so RT-PCR was performed to quantitate the reduction. Compared to a control-transfected clone (WT), there was a 50% reduction in mRNA in clone CC (ribozyme). This was confirmed by western blot analysis of the transfected and control clones for N-SMase.

N-SMase [3] = assay: Neutral sphingomyelinase activity in cell extracts, [14C]sphingomyelin substrate; settings: for Neutral SMase activity: MG-63 WT 2.7, L-3 LacZ/sham 2.1
Method: as §1, §2

B1: N-SMase ribozyme: U1 snRNA-derived hammerhead antisense ribozyme targeting N-SMase mRNA, expressed from vector pNSMRz; stably transfected MG63 clones CC and C-B (nucleic acid, listed as Homo sapiens)
chain: AUACUUACCUGGCAGGGGAGAUACCAUGAUCACGAAGGUGGUUUUCCCAGGGCGAGGCUUAUCCAUUGGCCUCCGGAUGUGCUGACCCCUGCGAUUUCCCCAAAUGUGGGAAACUCGACUGCAGAAUAUGUCAUCAUAUUGCCUGAUGAGUCCGUGAGGACGAAACCUCUUCACAUGAAAAAGUGGGGCUGCGUUCGCGCUUCCCCG
Dose-response of caspase-3 and cytochrome-C release to TNF-α and FasL [1]: marked blunting of the response | Basal level of apoptotic cells (MG-63 cells; CC (ribozyme transfection), DAPI, 3% untransfected, 3% control transfection): 2.8% | Apoptosis in response to TNF-α and Fas-L (MG-63 cells): marked hyporesponsiveness | Apoptosis in response to TNF-α and Fas-L (MG-63 cells; listed as antisense ribozyme): not altered | Apoptosis in response to TNF-α and Fas-L (MG-63 cells; listed as ribozyme): marked resistance to apoptosis | Acid SMase activity (A-SMase; MG-63 clone C-B (mutant)): 2.2 nmol/mg protein/hr | Acid SMase activity (A-SMase; MG-63 clone CC (mutant)): 2.1 nmol/mg protein/hr | Reduction in A-SMase activity (A-SMase): unchanged | Reduction in A-SMase activity (A-SMase; listed as ribozyme): no discernable reduction | Level of N-SMase by western immunoblot densitometry (N-SMase [2]): greatly reduced | N-SMase mRNA by Northern analysis (N-SMase mRNA; clone CC): no detectable | Reduction in N-SMase mRNA by RT-PCR (N-SMase mRNA; clone CC compared to a control-transfected clone (WT)): 50% | Neutral SMase activity (N-SMase [3]; MG-63 clone C-B (ribozyme-transfected mutant), average of two batches): 1.0 nmol/mg protein/hr | Neutral SMase activity (N-SMase [3]; MG-63 clone CC (ribozyme-transfected mutant), average of two batches of cell pellets): 0.67 nmol/mg protein/hr | Reduction in N-SMase activity (N-SMase [3]; ribozyme-transfected cells compared to sham-transfected and untransfected controls): three-fold reduction
